Reference: US7678386B2, “Liposomes coated with selected antibodies that bind to aminophospholipids” (Board of Regents the University of Texas, priority 2002, dated 2010)
Values joined by “and” are separate entries in the source; they are usually repeats but may differ in a detail not shown here. Identical values can stand only once.

Assay: Monoclonal single chain antibody ELISA on PS plate
Assay type: binding
Conditions: supernatants of individual subclones, 10% human serum
Method: Individual HB2151 colonies from the plates (after 4 rounds of selection) were inoculated into 500 μl 2×TY containing 100 μg/ml ampicillin and 1% glucose in 96-well plates and grown with shaking (300 rpm.) overnight at 37° C. 5 μl from this plate were transferred to a second 96-well plate containing 500 μl 2×TY containing 100 μg/ml ampicillin per well and grown shaking at 37° C. for 3 hr (OD600=0.9).
To each well was added 50 μl 2×TY containing 100 μg/ml ampicillin, 10 mM IPTG (final concentration is 1 mM), which was grown with shaking overnight at 30° C. It was centrifuged at 1,800 g for 10 min and 100 μl of the supernatant used in the following ELISA.
96 well plates (DYNEX IMMULON®1B) were coated with PS dissolved in ethanol at a concentration of 10 μg/ml (P6641 10 mg/ml solvent was Chloroform:MeOH 95:5). 10 μg/ml PC was coated in the same way. These plates were evaporated at 4° C. in the cold room. 250 μl 2.5% casein was added to each well, and the plates were covered and blocked at 37° C. for 1 hour.
Wells were rinsed 3 times with PBS, 100 μl/well 10% human serum and 100 μl/well supernatant containing soluble scFv was added and incubated for 60 min at 37° C. The solution was discarded and washed 6 times with PBS. […] 100 μl 0.18 M H2SO4 was added to stop the reaction and read at O.D. 490.

B1: 3A2: scFv anti-PS clone; sequences SEQ ID NO:5 and SEQ ID NO:6 (protein)
scFv: AQPAMAEVQLVESGGGVVQPGRSLRLSCAASGFTFSSYGMHWVRQAPGKGLEWVAVISYDGSNKYYADSVKGRFTISRDNSKNTLYLQMNSLRAEDTAVYYCARLHAQTWGQGTLVTVSSGGGGSGGGGSGGSALQSVLTQPPSVSAAPGQKVTISCSGSSSDMGNYAVSWYQQLPGTAPKLLIYENNKRPSGIPDRFSGSKSGTSATLGITGLWPEDEADYYCLAWDTSPRNVFGGGTKLTVLGAAAHHHHHHGAAEQKL
  ELISA on PS Plate (O.D. 490): 0.126 and 0.118 (2×) and 0.131 (2×) and 0.125 and 0.115 and 0.127 and 0.150 and 0.117 and 0.112 and 0.121 and 0.123 and 0.114 and 0.116 and 0.132
